This is an account of results in patent US20230399394A1 (SUNSHINE GUOJIAN PHARMACEUTICAL SHANGHAI, published 2023).

Assay [1] deals with T1, IL-33 mutant protein S63A (human, UniProt O95760 112-270).
T1 construct: Prokaryotic expression
T1 chain: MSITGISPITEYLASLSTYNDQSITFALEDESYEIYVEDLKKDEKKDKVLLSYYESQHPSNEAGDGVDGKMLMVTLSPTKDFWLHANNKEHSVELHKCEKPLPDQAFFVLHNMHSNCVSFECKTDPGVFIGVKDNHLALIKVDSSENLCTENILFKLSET
Description: ELISA as Example 9; row S63A. As for the experimental part:
SA protein was diluted to 2 μg/mL to coat ELISA plate at 100 μL/well overnight at 4° C. The plate was washed with PBST (PBS containing 0.05% Tween20) for 3 times, and blocked with 2% BSA prepared in PBS at 200 μL/well, at room temperature for 2 h. After the plate was washed twice with PBST, IL-33-his-biotin protein was diluted to 1 μg/mL with 1% BSA prepared in PBST, and was added to ELISA plate at 100 μL/well. The plate was incubated at room temperature for 1 h, and each monoclonal antibody was diluted with 1% BSA prepared in PBST in a 3-fold gradient. The highest concentration of antibody was 10 μg/mL, and the antibody was diluted for 12 gradients. Each diluted monoclonal antibody was added to ELISA wells with 100 μL/well, and the plate was incubated at room temperature for 1 h. Each sample was added to duplicate wells in parallel. The plate was washed with PBST for 3 times, and HRP-anti human IgG Fc secondary antibody prepared with PBST was diluted at an appropriate ratio, and was added to ELISA wells at 100 μL/well. […] Each reaction solution was shaken uniformly and OD450 nm was read on a microplate reader. The data was analyzed and EC₅₀ was calculated.
Subsequently, according to the experimental method of Example 9, the affinity of the above mutant proteins to 874F7-Hu1 was determined, and IL-33 proteins (WT-1, WT-2, WT-3, and WT-4) without any mutation were set as controls.

Assay [2] has as its target T2, Human IL-33-his (human, UniProt O95760 112-270, biotinylated with EZ-Link NHS-Biotin where used as IL-33-his-biotin).
T2 construct: Used plain (SPR, cell assays) and biotinylated (ELISA); also called IL-33-his-biotin
T2 sequence: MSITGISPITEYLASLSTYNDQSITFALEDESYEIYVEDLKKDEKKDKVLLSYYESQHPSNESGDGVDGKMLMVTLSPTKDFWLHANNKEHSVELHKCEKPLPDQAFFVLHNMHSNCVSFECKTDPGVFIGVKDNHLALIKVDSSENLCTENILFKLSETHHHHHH
As to the kind of experiment: ELISA as Example 9, IL-33-his-biotin on streptavidin plate. (An ELISA detects its analyte on a solid surface through an enzyme-linked reagent.)

For assay [3], the target named is T2, Human IL-33-his. Description: SPR Biacore 8K, antibody captured on Protein A/G chip, IL-33-his as analyte, 1:1 model. As for the experimental part: A chip with covalently coupled Protein A/G (purchased from GE Healthcare, catalog number BR-1005-30) was used to capture each antibody to be tested, and the relevant operating parameters were as follows: The antibody concentration was […], the contact time was 75 s, the flow rate was […], and the regeneration contact time was 30 s. The IL-33-his antigen was diluted with HBS-EP pH7.4 buffer solution (purchased from GE Healthcare, catalog number BR-1006-69). The maximum concentration was 50 nM, and diluted to 0.39 nM by two-fold dilution. Duplicate wells and 0 concentration point well were set, and 6M guanidine hydrochloride solution was used as the regeneration buffer. The sample was injected on Biacore 8K according to the following parameters, the binding time was 180 s, the dissociation time was 900 s, the flow rate was 30 μL/min, and the regeneration contact time was 30 s. After running, Biacore 8K Evaluation Software was used to analyze the data according to the “1:1 binding kinetics model”, and the binding kinetics parameters of each antibody to IL-33 were obtained.

The target of assay [4] is T2, Human IL-33-his. Description: indirect ELISA, biotinylated IL-33-his on streptavidin plate. On the procedure:
The binding ability of murine antibody to human IL-33 protein was determined by indirect enzyme-linked immunosorbent assay (ELISA). The specific methods were as follows: The plate was pre-coated with biotin-avidin (SA) which was diluted in coating solution (50 mM carbonate coating buffer, pH 9.6) to 2 μg/ml at 4° C. overnight, then the plate was blocked with 5% skim milk powder at 37° C. for 2 hours and stored at −80° C. for later use. Biotinylated recombinant human IL-33-his protein was diluted to 0.5 μg/ml in coating solution (50 mM carbonate coating buffer, pH 9.6) and was added at 100 μl/well to the pre-coated SA plate, 37° C., 0.5 h. After washing the plate with PBST for 3 times, the antibodies to be tested were diluted by gradient with 1% BSA buffer and added into the blocked plate at 100 μl/well, and incubated at 37° C. for 1 hour. The plate was washed with PBST for 3 times, and the HRP-labeled goat anti-mouse IgG was added and placed at 37° C. for 30 min. After washing the plate with PBST for 3 times, the plate was patted on the absorbent paper to remove residual droplets as far as possible. […] OD values were read at 450 nm on the microplate reader to analyze the binding ability of the antibodies to be tested to the target antigen human IL-33-his.

B1: 874F7-Hu1 (antibody, human IgG4 S228P, kappa)
heavy: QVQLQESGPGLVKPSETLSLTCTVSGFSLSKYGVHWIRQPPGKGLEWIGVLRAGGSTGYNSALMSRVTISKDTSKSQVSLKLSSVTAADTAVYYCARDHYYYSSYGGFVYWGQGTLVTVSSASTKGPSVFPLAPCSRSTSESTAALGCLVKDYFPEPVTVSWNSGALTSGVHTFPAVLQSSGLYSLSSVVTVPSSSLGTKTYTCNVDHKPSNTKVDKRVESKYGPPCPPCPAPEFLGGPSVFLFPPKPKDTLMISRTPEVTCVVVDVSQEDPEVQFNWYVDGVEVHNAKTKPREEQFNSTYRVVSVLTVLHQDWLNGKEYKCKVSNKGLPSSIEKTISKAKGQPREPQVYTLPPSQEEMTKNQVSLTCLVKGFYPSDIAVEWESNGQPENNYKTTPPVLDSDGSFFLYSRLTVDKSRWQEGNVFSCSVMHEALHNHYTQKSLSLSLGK
light: DIQMTQSPSSVSASVGDRVTITCLASQTIGAWLAWYQQKPGKSPKLLIYAATRLADGVPSRFSGSGSGTDFTLTISSLQPEDFATYYCQQLDSSPYTFGQGTKVEIKRTVAAPSVFIFPPSDEQLKSGTASVVCLLNNFYPREAKVQWKVDNALQSGNSQESVTEQDSKDSTYSLSSTLTLSKADYEKHKVYACEVTHQGLSSPVTKSFNRGEC
notes: also called 874F7-Hul; humanized antibody 874F7-Hu1
As a reminder, the EC50 is the concentration that produces a half-maximal response. Higher therefore signals a need for much substance. Broadly, the Kd is a measure of binding affinity in units of concentration. A high value points to lower affinity. In general, koff refers to the rate constant with which the complex falls apart. Read a low koff as slow dissociation. The kon is the second-order rate constant of association. High values mean faster complex formation, low ones slower complex formation. Take B1: the midpoint of the response in assay [1], the EC50, lay at 0.16 nM. Moreover, the EC50 in the assay with Human IL-33-his [2] is 0.129 nM. In the assay with Human IL-33-his [3], this molecule displayed a dissociation constant Kd of 2.82 nM, a koff of 0.00057 s⁻¹ and a kon of 202000 M⁻¹ s⁻¹.

B2: 874F7 (antibody, V domains shown)
VH: QVQLKESGPGLVAPSHSLSITCNVSGFSLSKYGVHWIRQIPGRGLDWLGVLRAGGSTGYNSALMSRLSISKDSSKSQVFLKMNDLRTDDTAVYFCVRDHYYYSSYGGFVYWGQGTLVTVSA
VL: DIQMTQSPASQSASLGESVTITCLASQTIGAWLAWYRQQPGKSPQLLIYAATRLADGVPSRFSGSGSGTEFSFKINNLQAEDFVSYYCQQLDSSPYTFGGGTRLEM
notes: Murine hybridoma antibody purified on Protein G; also called murine antibody 874F7
In the assay with Human IL-33-his [4], B2 showed an EC50 of 0.11 nM.
